Laboratory results published in the nanobody polyreactivity screen of Harvey et al. (2022).

Experiment: yeast display, Sf9 membrane polyspecificity reagent, FACS + sequencing; frameworks hold sequencing errors
How it was run: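 Nanobodies came from a synthetic yeast display library in Saccharomyces cerevisiae BJ5465, induced with galactose for 36–48 hours and stained for 1 hour at 4 °C with 10% biotinylated, detergent-solubilized Sf9 membrane reagent. Cells were enriched on streptavidin microbeads and then FACS-sorted, with low and high (top ~1%) gates set on anti-HA fluorescence for expression and streptavidin fluorescence for reagent binding. Each polyreactivity label reflects the gate a clone came from. Genes were amplified by colony PCR, sequenced by MiSeq 2 × 250 and filtered by CDR length.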

Sequence	polyreactivity (PSR sort gate)
QVQLVESGGGLVQAGGSLRLSCAASGLIFSVYAMGWYRQAPGKERELVARISINGGSTYYADSVKGRFTISRDNAKNTVYLQMNSLKPEDTAVYYCNAVRITHYVRYYYWGQGTQVTVSS	high polyreactivity
QVQLVESGGGLVQAGGSLRLSCAASGGTFSTYAMGWYRQAPGKERELVAAISWRGGSTYYADSVKGRFTISRDNAKNTVYLQMNSLKPEDTAVYYCAAYYSRGWLLYWDEMSYWGQGTQVTVSS	high polyreactivity
QVQLVESGGGLVQAGGSLRLSCAASGLTFSRYAMGWYRQAPGKERELVAAISRRGGITYYADSVKGRFTISRDNAKNTVYLQMNSLKPEDTAVYYCNKDYGGELDYWGQGTQVSVSS	high polyreactivity
QVQRVESGGGLVQAGGRLRLSCAASGLIFAHDARGWYRQAPGKERELVAGINRSGGSTYYADSVKGRFTISRDNAKNTVYLQTNSLKPEDTAVYYCAARRAYPRPGYDYWGQGTQVTVSS	high polyreactivity
QAQLQESGGGLVQADGSLRLCCAASGSIFQTIYMGWYRQAPGKERELVASIDIGANTDYAVSVKGRFTISRDNAKNSVYLQMHSLKPEDTAVYYCAARYSRGRLLVSRGNYWGQGTQVTVSS	high polyreactivity
QVQLVESGGGLVQAGGSLRLSCAASGRIFDTYAMGWDRPAPRKERELVAAINSGGRTYYADSVKGRFTISRDNAKNTVYVQMNSLKPEDTAVYYCAAYITYSYGRYGSWGQGTQVTVSS	high polyreactivity
QVQLVESGGGLVQAGGSLSLSWAASGFILKINTMGWYRPAPRKERDLVADITESGGNTYADSEKWRFTISRDNAKNTVYLQMNSLKPEVTAVYYCNDDIYISPLVQVSKGYDYWGQGTQVTVSS	low polyreactivity
QVKLVESGGGIVQAGGSLRLSCAASGIIFARNAMGCYRQAPGKERELVAGINGGRKNYADSVKGSFTISRDNAKNTVYLQMNSLKPEDSAVYYCAARNKGTLYRYGYWGQGTQVTVSS	high polyreactivity
QVQLVESGGGLVQAGGSLRLSCAASGSTFGYNDMGWYRQAPGKERELVAAISVSDSSTYYADSVKGRFTISRDYAKNTVYLQMNCLKPEDTAVYYCAAEYYVGFTYRYEYWGQGTQVTVSS	low polyreactivity
QVQLVESGGGIVQAGGSLRLTCDASGFTFVINDMGRYRQARGKERELVADITSGGDTYYADSVKGRFTISRDNAKNSVYFHRNSLKPEDTAVYFCAADIYPDWIYLLYGYWGQGTQLTVSS	low polyreactivity
QVQLVESGGGLVQAGGSLRLRCAASGSTIRCYAMGWYRQAPGKERELVAAIRRGGSTYYADSVKGRFTISRDNAKNTVYLQKNSLKPEVTAVYYCAAEPGYYSRQDYRVYRLYYWGQGTQVTVSS	high polyreactivity
QVQLQESRGGLVQAGGSLRLGFAASGNISDAGNKGWYRQAPGKEREFVAAIAAGSNTNYADSVKGRFTISRDNAKNTVYLQMNSLKPEDTAVFYCAVAYYARLQYEYWGQGTQVTVKS	low polyreactivity
EEELVESGGGLVQAGGSLRLSCAASGIIFGYYAMGWYRQAPGKERELVAAITRSGSSTYYADSVKGRFTISRDNAKNTVYLQMNSLKPEDTAVVSCAADNFYQAYGYWGQGTQVTVSS	low polyreactivity
QVQLVESGGRLVQAGGSLRLSCAASGFTFARYTMGWYRQAPGKERELVAAISSRGSSTYYADSVKWRFTISRDNAKNTVYLQMNSLKPEDTAVYYCGAPPRYGYDYWGQGTQVTVSS	high polyreactivity
QVQLVESGGGLVQAGGSRRLSCAASGSTFYPYAMGWYRQAPGKERELVAAITWSGGRTYYADSVKGRFTISRDNAKNTVYLQMNSLKPEDTAVYYCAADRPDRWVDYWGQGTQVTVSS	low polyreactivity
QVHLVESGGGLVQAGGSLRLSCAASGRTSIFNAMGWYRPAPGKERELVAAITARGASTYYADSVKGRFTISRDNAKNTVYLQKNSLKPDDTAVYYCAARDHAFRYYRNPFKGKYDYWGQGTQVTVSS	low polyreactivity
QVQLVESGGGLVQAGGSLRLSCAASGLIFSNNAMGWYRQAPGKERELVAAITSSGSRTYYADSVKGRFTISRDNAKNTVYLEMNRLKPEDTAVYYCAAYEVPYQRRYGYWGQGTQVTVSS	high polyreactivity
QVQLVESGGGLVQAGGSLRLSCAASGSTFYQYVMGWYRQAPGKERELVAAISGSGGSTYYADSVKGRFTISRDNAKNTVYLQMNSLKPEDTAVYYCAAVGRSKRDGYWGQGTQVTVSS	high polyreactivity
QVHLVESGGGLVQAGGSLRLSCAASGRIFGYNAMGWYRQAPGKERELVAAITGSRGSTYYADSVKGRFTFSRDTAKNTVYLQLNSLKPEDTAVYYCNAPGNHWGDWGHGTQVTVSS	low polyreactivity
QVQLVESGGGLVQAGGSLRLSCAASGRTFRSDNAMGWYRQAPGKERELVAAISQGGGTYYADSVKGRFTISRDNAKNTVYLQMNSLKPEDTAVYYCARDAYYADPSLWYYTYDYWGQGTQVNVSS	low polyreactivity
QVQLVESGGGLVQAGGSLRLSCSASGITFGTYAMGWYRQAPGKERELVASITYGGTNTYYADSVKGRFTISRDNAKNTVCLQMNSLKPEDTAVYYCNADPAVSRGSIATDDYDYWVQGTQVTVSS	low polyreactivity
QVQLVESGGGLVQAGASLRLSCAASGITLDLYDMGWYRQAPGKERELVAAISRSGVRTYYADSVKWRFTISRDNAKNTVYFQMNSLKPEDTSVYYCNKGYARRYASGYDYWGQGTQVSVSS	high polyreactivity

Sequence	polyreactivity (PSR sort gate)
QVQLVESGGGLVQAGGSLRLSCAASGSIFVSNAMGWYRQAPGKEREMVAAISQSGGSTYYADSVKGLFTISRDNAKNTVYLQMNSLKPEDTEVYYCATPIRSGFRIYEYWGQGTQVTVSS	low polyreactivity
QVQIVESGGGLVQAGGSLRLSCAASGSTINYNAMGWYRQAPGKERELVAAISTNGGSTYYADSVKGRFTISRDNAKNTVYLQMNSLKPEDTAVYYCNKVRKYSRHYDYWGQGTQVTVSS	high polyreactivity
QVQIVESGGGLVQAGGSLRLSCAASGSTFGGYVMGWYRQAPGKERELVAAIRWRTDSTYYADSVKGRFTISRDNAKNTVYLQMNSLKPEDTAVYYCAAPRGTRVGSHLYYWGQGTQVTVSS	high polyreactivity
QVQLVESGGGLVQAGGSLRLSCAASGRTFHANAMGWYRQAPGKERELVAAISYRTGSTYYADSVKGRFTISRDNAKNTVYLQMNILKPDDTAVYYCDVDTRYGYGYWGQGTQVTVSS	high polyreactivity
QVQLVESGGGLVQAGGSLRLSCAASGSTFPRNAMGWYRQAPGKERELVAAISSGGSTYYADSVKWRFTISRDNAKNTVYLQMNSLKPEDTAVYYCAARLYWPIIVVDLYGYDYWGQGTQVTVSS	low polyreactivity
QVQLVESGGGLVQAGGSLRLSCAASGSIFGAYAMGWYRQAPGKERELVAAISSSVDRTYYADSVKGRFTISRDNAKNTVYLQMNSLKPEDTAVYYCAARWGTRDRTKYYYWGQGTQVTVSS	high polyreactivity
QVQLVESGGGLVQAGGSLRLSCAASGSIFPWYAMGWYRQAPWKERELVAGISSGGGTNYADSVKGRFTISRDNAKNTVYLQMNSMKPEDTAVYYCNADYFGGGDYWGQGTQVTVSS	low polyreactivity
QVQLVESGGGVVQSRGSLRLTCAASGRIFLQYAMGWYRQAPWKERELVAAIEWSGGRTYYADSVKGRFTISRDNAKNTVYLQMNSLTPEDTAVYYCAARRISGSAVRGSRGYWGQGTQVTVSS	high polyreactivity
QVQLVESGGGLVQAGGSLRLSCAASGRTLKYNPMGWYRQAPGKERELVAAISRSGGRTYYADSVKGRFTIARDIAKYSVYSQINSLKPEDTAVYYCARESSYYKYYYWGQGTQVTLSS	high polyreactivity
QVQLVESGGGLVQAGGSLRLSCAASGFIFRWYTLGWYRQAPGKERELVAAISRSGGSTYYADSVKGRFTISRDNAKNTVYLQMNSLKPEDTAVYYCNAYDHPIYRLDYWGQGTQVTVSS	high polyreactivity
QVQLVESGGGLVQAGGSLRISCAASGSTFPYYAMGWYRQAPGKERELVAAISQNGGSTYYADSVKGRFTISRDNAKNTVYLQMNSLKPEDTAGYYCNRTARKLRTVHSSVVGLDYWGQGTQVTVSS	low polyreactivity
QVQLEESGGGLVQAVRSLRLSCAASGSTFDYYAMRWFRQAPWKEREFVAAISVSGGRTYDADSVKGRFTISRDNAKTTVYLQMNSQKPEDTAVSYCAAVQWYLPSFRYYYRGQGTQVTVSS	high polyreactivity
QVQLEESGGGLVQAGGSLRLSCAASGRTFDIYAMGWYRQATGKERELVAAISSGGSTYYADSVKGRFTISRDNAKNTVFLQMNSLKPEDTAVYYCAVRWYDQVSRRGIGYYWGQGTQVTVSS	low polyreactivity
QVHLVESGGALVQAGGSLRLSCAASGLTFVTNSMGWYRQAPGKERELVAAISLGGGSTYYADSVKGRFTISLDNAKNTVYLQMNSLKPEDTAVYYCAAVPGWVRQAVGWVLSLLDYCGQGTQVTVSS	low polyreactivity
QVQLVESGGGLVQAGGSLRLSCAASGFIFSSYALGSYRQAPGKERELVAAIDLSGDSTYYADSVKGLFTISRDNAKNTVYLQMNSVKPEDTAVYYCAAQYYDYWYDSDYWGQGTQVTVSS	high polyreactivity
QVQLVESGGGLVQAGGRLRLSCAASGFIFLNYTMGWYRQAPGKEREMVADISNGSDRTYFADSLKGRFTISRENAKNTVYLQMNSLKPEDTAVYYCAKDRDFSSPPTESGFDYWGQGTQVTVSS	low polyreactivity
QVQLGESGGGLVQAGGSLRLSCAASGFIFYVYAMGWYRQAPGKERELVAAISWSGDRTYYADSVKGRFTISRDNAKNTVYLQINSLKPEDTAVYYCAVERSVYSYYYWGQGTQVTVSS	high polyreactivity
QVQLVESGGGLVQAGGSLRLSCAASGITFRWYTMGWYRQAPGKERELVAAITSSGARTYYADSVKGRFTISRDNAKNTVYLQMNSLKPEDTAVYYCAATQTRFAAKDEYWGQGTQVTVSS	high polyreactivity
QVQLVESGGGLVQAGGSLRLSCAASGFTFVFYAMGWYRQAPGKERELVAGISRTGGSTYYADSVKGRFTISRDNAKNTVYLQMNSLKPEDTAVYYCNAARFTRRDYWGQGTQVTVSS	high polyreactivity
QVQLVESGGGLVQAGGSLRLSCAASGNTFRWYAMGWYRQAPGKEREFVADITVRGGSTYYADSVKGRFTISRDNAKNTVYLQMNSLKPEDTAVYYCAVDFRRYPGFDYWGQGTQVTVSS	low polyreactivity
QDQLVESGGGLVQAGGSLRLSCAASGFTFNIYAMGWYRQAPGKERELVAAISWSGGRTNYADSVKGRFTISRDNAKKTVYLQMNSLKPEATAVYYCAVRYKSWYGFNYWGQGTQVTVSS	high polyreactivity
